# Experimental data: patent publication US20100260765A1 (AstraZeneca / MedImmune, published 2010)
# Numbering of substitutions follows the chain as printed.
# B1: 30E3 (antibody, V domains shown)
# VH: EVQLLESGGGLVQPGGSLRLSCAASGFTFSNYALSWVRQAPGKGLEWVSAISGSGRNTYYADSVKGRFTLSRDNSKNTLFLQMNSLRAEDTAVYYCAKASGDNWGQGTLVTVSS
# VL: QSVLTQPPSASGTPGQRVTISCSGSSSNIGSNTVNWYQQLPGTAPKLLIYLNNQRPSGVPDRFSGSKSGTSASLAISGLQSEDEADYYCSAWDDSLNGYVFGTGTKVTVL
# B2: 1G6 (antibody, V domains shown)
# VH: EVQLLESGGGLVQPGGSLRLSCAASGFTFSSYAMSWVRQAPGKGLEWVSAISGGGGNTYYADSVKGRFTISRDNSKNTLYLQMNSLRAEDTAVYYCSKVATDYWGQGTLVTVSS
# VL: QPVLTQSSSASASLGSSVKLTCTLSSGHSSYIIAWHQQQPGKAPRYLMKLEGSGSYNKGSGVPDRFSGSSSGADRYLTISNLQFEDEADYYCETWDSYTVVFGGGTKLTVL
# B3: 29A11 (antibody, V domains shown)
# VH: B1 VH with L34M, S35N, S54G, R56G, L70I, F80Y, S85R, N103D
# VL: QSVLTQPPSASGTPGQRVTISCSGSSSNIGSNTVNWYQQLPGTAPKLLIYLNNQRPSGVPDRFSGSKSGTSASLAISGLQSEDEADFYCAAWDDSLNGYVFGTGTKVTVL
# B4: 32G7 (antibody, V domains shown)
# VH: EVQLVESGGGLVKPGGSLRLSCAASGFTISSYSMNWVRQAPGKGLEWVSFISSRSNYIYYADSVKGRFTISRDNAKNSLYLQMNSLRAEDTAVYYCSKDDWFEELWGQGTLVTVSS
# VL: DIQMTQSPSSLSASVGDRVTITCRASQDIRNDLGWYQQKPGKAPKRLIYAASSLQSGVPSRFSGSGSGTEFTLTISSLQPEDFATYYCLQHNSFPWTFGQGTKVEIK
# B5: 33B1 (antibody, V domains shown)
# VH: B4 VH with I29F, S33T, S52D, N56S
# VL: B4 VL with D28G, A51T, Q90H
# B6: 29D4 (antibody, V domains shown)
# VH: QLQLQESGPGLVKPSETLSLTCTVSGGSISSRSNYWGWIRQPPGKGLEWIGTIYYSGHTYYNPSLKSRVSISVDTSKNQFSLKLSSVTATDTALYYCARQQLVLYYFEYWGQGTLVTVSS
# VL: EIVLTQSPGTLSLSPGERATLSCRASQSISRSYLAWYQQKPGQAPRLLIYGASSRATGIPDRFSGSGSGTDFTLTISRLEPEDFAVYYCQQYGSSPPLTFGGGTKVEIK
# B7: 33D5 (antibody, V domains shown)
# VH: QVQLVQSGAEVKKPGASVKVSCKASGYTFGSYDINWVRQATGQGLEWMGWMNPNSGNTGYAQKFQGRVTLTRNTSIRTVYMELSSLRSEDTAVYYCARGGYSNLGWFDPWGQGSLVTVSS
# VL: DIQMTQSPSSVSVSVGDRVTITCRASQGISSWLAWYQQKPGKAPKLLIYAASSLQSGVPSRFSGSGSGTDFTLTISSLQPEDFATYYCQQANSFPFTFGPGTKVDIK
# Target: T1, KDR (human, UniProt P35968 20-1356)
# T1 sequence (P35968 20-1356): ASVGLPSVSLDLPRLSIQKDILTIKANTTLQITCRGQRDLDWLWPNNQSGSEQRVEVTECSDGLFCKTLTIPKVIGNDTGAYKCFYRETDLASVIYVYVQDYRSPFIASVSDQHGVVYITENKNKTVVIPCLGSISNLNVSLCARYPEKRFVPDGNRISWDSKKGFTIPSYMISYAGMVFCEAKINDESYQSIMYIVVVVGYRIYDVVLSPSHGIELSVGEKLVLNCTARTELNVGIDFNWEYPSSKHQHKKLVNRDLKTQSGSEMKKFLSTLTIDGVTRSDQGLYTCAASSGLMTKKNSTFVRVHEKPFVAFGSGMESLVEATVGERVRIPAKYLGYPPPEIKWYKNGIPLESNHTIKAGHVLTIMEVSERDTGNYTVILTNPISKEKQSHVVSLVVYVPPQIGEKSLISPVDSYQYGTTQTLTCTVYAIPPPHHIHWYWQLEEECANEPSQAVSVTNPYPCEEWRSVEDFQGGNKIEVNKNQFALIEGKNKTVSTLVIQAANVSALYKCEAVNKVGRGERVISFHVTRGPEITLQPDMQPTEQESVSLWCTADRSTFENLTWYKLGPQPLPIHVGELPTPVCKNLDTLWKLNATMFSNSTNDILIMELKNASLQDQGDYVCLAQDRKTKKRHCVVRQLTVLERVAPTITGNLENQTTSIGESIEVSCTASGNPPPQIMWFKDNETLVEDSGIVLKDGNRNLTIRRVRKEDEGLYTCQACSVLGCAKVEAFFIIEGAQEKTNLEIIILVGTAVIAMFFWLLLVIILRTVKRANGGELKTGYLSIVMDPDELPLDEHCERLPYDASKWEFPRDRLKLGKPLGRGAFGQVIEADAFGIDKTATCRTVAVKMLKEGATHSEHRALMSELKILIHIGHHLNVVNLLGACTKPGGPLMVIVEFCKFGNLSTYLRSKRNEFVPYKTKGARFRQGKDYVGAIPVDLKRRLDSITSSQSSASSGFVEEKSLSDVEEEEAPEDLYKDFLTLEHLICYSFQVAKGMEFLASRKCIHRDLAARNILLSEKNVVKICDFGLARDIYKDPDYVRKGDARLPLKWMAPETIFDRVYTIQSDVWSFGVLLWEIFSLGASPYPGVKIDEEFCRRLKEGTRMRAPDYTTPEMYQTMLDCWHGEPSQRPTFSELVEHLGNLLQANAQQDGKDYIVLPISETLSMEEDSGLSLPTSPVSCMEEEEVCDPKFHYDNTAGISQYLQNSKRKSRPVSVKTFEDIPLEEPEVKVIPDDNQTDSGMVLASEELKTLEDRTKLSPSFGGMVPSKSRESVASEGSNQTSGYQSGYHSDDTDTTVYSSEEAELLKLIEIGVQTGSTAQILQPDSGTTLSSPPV
# Assay: cell-based or functional assay
Binder,"Activity at 133 nM (% Inhibition), 24-hour Pre-incubation at 37° C., Average","Activity at 133 nM (% Inhibition), 24-hour Pre-incubation at 37° C., N = 1","Activity at 133 nM (% Inhibition), 24-hour Pre-incubation at 37° C., N = 2"
B1,83%,69%,97%
B2,36%,25%,47%
B3,23%,19%,27%
B4,57%,36%,77%
B5,85%,88%,82%
B6,80%,75%,85%
B7,-15%,8%,-38%

# Target: T1, KDR
# Assay: cell-based or functional assay
# Remark: another data set of the same source
Binder,"% Inhibition of VEGF165-mediated 6-keto Prostaglandin F1α release at 133 nM Antibody Concentration, Average","% Inhibition of VEGF165-mediated 6-keto Prostaglandin F1α release at 133 nM Antibody Concentration, N = 1","% Inhibition of VEGF165-mediated 6-keto Prostaglandin F1α release at 133 nM Antibody Concentration, N = 2"
B1,24%,15%,33%
B2,49%,12%,86%
B3,25%,8%,41%
B4,76%,37%,115%
B5,95%,76%,114%
B6,95%,72%,119%
B7,36%,15%,57%

# Target: T1, KDR
# Assay: cell-based or functional assay
# Remark: another data set of the same source
Binder,"% of Max VEGF KDR pTyr Activity (at 133 nM antibody concentration), Average","% of Max VEGF KDR pTyr Activity (at 133 nM antibody concentration), N = 1","% of Max VEGF KDR pTyr Activity (at 133 nM antibody concentration), N = 2"
B1,10%,11%,8%
B2,13%,17%,10%
B3,12%,15%,10%
B4,9%,11%,6%
B5,7%,7%,7%
B6,13%,15%,12%
B7,17%,20%,15%

# Target: T1, KDR
# Assay: cell-based or functional assay
# Remark: another data set of the same source
Binder,"Activity at 133 nM Antibody Concentration (% Survival Inhibition), Average","Activity at 133 nM Antibody Concentration (% Survival Inhibition), N = 1","Activity at 133 nM Antibody Concentration (% Survival Inhibition), N = 2"
B1,-16%,-5%,-27%
B2,0%,9%,-10%
B3,-2%,6%,-10%
B4,69%,70%,67%
B5,73%,80%,66%
B6,85%,85%,85%
B7,5%,13%,-2%

# Target: T1, KDR
# Assay: cell-based or functional assay
# Remark: another data set of the same source
Binder,"Activity at 133 nM (% Inhibition), 1-hour Pre-incubation at 4° C., Average","Activity at 133 nM (% Inhibition), 1-hour Pre-incubation at 4° C., N = 1","Activity at 133 nM (% Inhibition), 1-hour Pre-incubation at 4° C., N = 2"
B1,33%,29%,37%
B2,43%,35%,50%
B3,32%,30%,33%
B4,79%,79%,79%
B5,87%,86%,88%
B6,68%,64%,73%
B7,49%,39%,60%
